Article PMC7382241, “Genomic discovery of an evolutionarily programmed modality for small-molecule targeting of an intractable protein surface” (Proceedings of the National Academy of Sciences of the …, 2020)

Target: the molecule itself
Test: crystal structure; CEP250_(11.4) with three-molar excess of FKBP12 and nine-molar excess of WDB002, ternary complex isolated by SEC; crystals in 0.1 M Hepes 7.0, 0.2 M sodium malonate, 21% PEG 3350

B1: CEP250_(11.4) (residues 2,134 to 2,231) (domain or fragment, human, UniProt Q9BV73 2134-2231, looked up)
chain: MEEQSLKLDSLEPRLQRELERLQAALRQTEAREIEWREKAQDLALSLAQTKASVSSLQEVAMFLQASVLERDSEQQRLQDELELTRRALEKERLHSPG
notes: human CEP250 residues 2,134 to 2,231; forms a homodimeric coiled coil in the crystal; tags not specified in the main text; Tags are in SI Materials and Methods; also called 11.4 kDa degradation product of CEP250; source: E. coli BL21(DE3)pLysS
stoichiometry N: 2
